Measured values published in the Immune Epitope Database (IEDB).

Tests used:
[1] = target: HLA-B*40:01; experiment: IEDB peptide-MHC binding, purified MHC/competitive/radioactivity; filed as Kd, often an IC50 or EC50 that approximates it; ≥ and ≤ were set here for values at or beyond the usual limits of such assays
[2] = target: HLA-B*44:02; experiment: as above
[3] = target: HLA-B*18:01; experiment: as above
[4] = target: HLA-B*44:03; experiment: as above
[5] = target: HLA-B*40:02; experiment: as above
[6] = target: HLA-B*45:01; experiment: as above
[7] = target: HLA-B*18:01; experiment: IEDB peptide-MHC binding, purified MHC/direct/fluorescence; filed as Kd, often an IC50 or EC50 that approximates it; ≥ and ≤ were set here for values at or beyond the usual limits of such assays
[8] = target: HLA-B*40:01; experiment: as above; conditions: source organism: West Nile virus
[9] = target: HLA-A*26:01; experiment: IEDB peptide-MHC binding, purified MHC/competitive/fluorescence; filed as Kd, often an IC50 or EC50 that approximates it; ≥ and ≤ were set here for values at or beyond the usual limits of such assays; conditions: source organism: Bacillus anthracis str. A0488
[10] = target: HLA-B*51:01; experiment: as above
[11] = target: HLA-B*15:01; experiment: as above; conditions: source organism: Bacillus anthracis str. A2012
[12] = target: HLA-B*46:01; experiment: as above; conditions: source organism: Shigella flexneri 5 str. 8401
[13] = source organism: SARS coronavirus Tor2
[14] = source organism: Mammarenavirus juninense
[15] = source organism: Mammarenavirus lassaense
[16] = source organism: West Nile virus
[17] = source organism: Mammarenavirus brazilense
[18] = source organism: Lymphocytic choriomeningitis virus (strain Armstrong)

Sequence: ADYSVLYNST
- Kd [1, 13]: ≥ 69.6 µM
- Kd [2, 13]: 1.97 µM
- Kd [3, 13]: ≥ 70.5 µM
- Kd [4, 13]: ≥ 45.7 µM
- Kd [5, 13]: ≥ 30.2 µM
- Kd [6, 13]: 0.768 µM

Sequence: DELPFVAPV
- Kd ([7]; source organism: Burkholderia ambifaria AMMD): 0.0006 µM

Sequence: EDIDSVETL
- Kd [1, 14]: 1.88 µM
- Kd [2, 14]: 12.3 µM
- Kd [3, 14]: 14.4 µM
- Kd [4, 14]: ≥ 28.3 µM
- Kd [5, 14]: 1.25 µM
- Kd [6, 14]: ≥ 24.3 µM

Sequence: EELITDVEFL
- Kd [1, 15]: 3.12 µM
- Kd [2, 15]: 5.16 µM
- Kd [3, 15]: 19 µM
- Kd [4, 15]: 6.37 µM
- Kd [5, 15]: 9.85 µM
- Kd [6, 15]: 17.9 µM

Sequence: EERKNFLEL
- Kd [8]: ≥ 20 µM
- Kd [7, 16]: 0.0484 µM

Sequence: EGIYKLSSM
- Kd [9]: 0.0431 µM

Sequence: EPYPPKGPV
- Kd ([10]; source organism: Vibrio vulnificus YJ016): 0.828 µM

Sequence: FPSVRYQNI
- Kd ([10]; source organism: Yersinia pestis KIM10+): 1.02 µM

Sequence: GDRWFLNRFT
- Kd [1, 13]: ≥ 69.6 µM
- Kd [2, 13]: ≥ 70.2 µM
- Kd [3, 13]: ≥ 70.5 µM
- Kd [4, 13]: ≥ 70.1 µM
- Kd [5, 13]: ≥ 70.8 µM
- Kd [6, 13]: ≥ 70 µM

Sequence: GEPKMTKAL
- Kd [1, 15]: 1.77 µM
- Kd [2, 15]: ≥ 20.3 µM
- Kd [3, 15]: ≥ 77.5 µM
- Kd [4, 15]: ≥ 49.9 µM
- Kd [5, 15]: 0.178 µM
- Kd [6, 15]: ≥ 68.1 µM

Sequence: HENKNATWCL
- Kd [1, 17]: 0.915 µM
- Kd [2, 17]: 4.54 µM
- Kd [3, 17]: 16.6 µM
- Kd [4, 17]: 15.3 µM
- Kd [5, 17]: 0.0544 µM
- Kd [6, 17]: 5.06 µM

Sequence: IAIEFKSRF
- Kd [11]: 0.279 µM

Sequence: IEVALRTLLL
- Kd [1, 18]: 1.29 µM
- Kd [2, 18]: 9.31 µM
- Kd [3, 18]: 1.71 µM
- Kd [4, 18]: 1.83 µM
- Kd [5, 18]: 0.0241 µM
- Kd [6, 18]: ≥ 70 µM

Sequence: IPVEPAFQV
- Kd ([10]; source organism: Vibrio antiquarius): 0.254 µM

Sequence: KETSYTTTI
- Kd [1, 13]: 0.0207 µM
- Kd [2, 13]: 0.0908 µM
- Kd [3, 13]: ≥ 77.5 µM
- Kd [4, 13]: 0.125 µM
- Kd [5, 13]: 0.0596 µM
- Kd [6, 13]: 0.183 µM

Sequence: LAMYHGQTY
- Kd [12]: ≥ 20 µM

Sequence: LEQWNLVIGF
- Kd [1, 13]: 3.94 µM
- Kd [2, 13]: 0.0161 µM
- Kd [3, 13]: 0.155 µM
- Kd [4, 13]: 0.0488 µM
- Kd [5, 13]: 0.565 µM
- Kd [6, 13]: 3.98 µM

Sequence: MEEPAPAGF
- Kd [8]: 2.57 µM
- Kd [7, 16]: 0.0198 µM

Sequence: NECAQVLSEM
- Kd [1, 13]: 0.801 µM
- Kd [2, 13]: 0.253 µM
- Kd [3, 13]: 0.177 µM
- Kd [4, 13]: 0.121 µM
- Kd [5, 13]: 12.2 µM
- Kd [6, 13]: 4.95 µM
